First the molecules themselves.
B1: Phage-2894 (peptide)
peptide: VLKMCEPLWMCVGF
B2: Phage-2899 (peptide)
peptide: MEIRCTPPWMCMGF
B3: Phage-2900 (peptide)
peptide: PWLMCKPAWMCTGF
B4: Phage-2898 (peptide)
peptide: NWPVCKPMWMCTGF
B5: Phage-2893 (peptide)
peptide: ALPQCVPAWMCLGF
B6: Phage-2892 (peptide)
peptide: ETPFCIPQWMCDGF
B7: Phage-2895 (peptide)
peptide: QALMCVPEWMCLGF
B8: Phage-2897 (peptide)
peptide: HDKLCRPAWMCNGF
B9: Phage-2896 (peptide)
peptide: IERMCRPAWMCDGF
B10: Phage-2870 (peptide)
peptide: SEFWCVPAWMCEGF
B11: Phage-2867 (peptide)
peptide: VLPMCSPPWMCIGL
B12: Phage-2865 (peptide)
peptide: MSPLCKPVWMCAGF
modifications: cysteine pairing not given here; also: displayed on phage by fusion to pIII
B13: Phage-2873 (peptide)
peptide: IIRHCVPMWMCQGF
B14: Phage-2869 (peptide)
peptide: WPQLCVPMWMCAGL
B15: Phage-2872 (peptide)
peptide: IDILCRPLWMCNGM
B16: Phage-2868 (peptide)
peptide: EPIRCVPQWMCVGF
B17: Phage-2877 (peptide)
peptide: TLSMCVPTWMCTGF
B18: Phage-2876 (peptide)
peptide: DDIRCKPAWMCMGF
B19: Phage-2864 (peptide)
peptide: IETWCVPRWMCEGF
B20: Phage-2871 (peptide)
peptide: LERVCKPLWMCTGL
B21: Phage-2875 (peptide)
peptide: SMPRCVPVWMCEGF
B22: Phage-2874 (peptide)
peptide: ETLRCEPMWMCMGF
B23: Phage-2866 (peptide)
peptide: TSPACVPSWMCVGF
B24: Phage-2863 (peptide)
peptide: FNVMCRPAWMCDFL
modifications: cysteine pairing not given here; also: fused to pIII of display bacteriophage, linker and sequence not given here
notes: Clonal phage of the Peptide-180 library; not shown: pIII filament protein of the display bacteriophage
B25: Phage-2862 (peptide)
peptide: TGAYCVPQWMCSGF
modifications: cysteine pairing not given here; also: fused to phage pIII, linker not given here
notes: as for B24
B26: Phage-2890 (peptide)
peptide: QEVYCKPAWMCDGF
notes: tested as crude clonal phage supernatant
B27: Phage-2891 (peptide)
peptide: EAHICRPLWMCTGF
notes: as for B26
B28: Phage-2889 (peptide)
peptide: MASLCVPSWMCTGF
notes: as for B26
B29: Phage-2879 (peptide)
peptide: VTVICKPQWMCVGF
notes: as for B26
B30: Phage-2882 (peptide)
peptide: PERMCIPSWMCEVL
notes: as for B26
B31: Phage-2881 (peptide)
peptide: GDPVCKPTWMCLGF
notes: as for B26
B32: Phage-2886 (peptide)
peptide: DGIKCVPRWMCDGF
notes: as for B26
B33: Phage-2887 (peptide)
peptide: SLPLCKPLWMCEGF
notes: as for B26
B34: Phage-2880 (peptide)
peptide: MHLMCKPAWMCAGF
notes: as for B26
B35: Phage-2883 (peptide)
peptide: WDAKCVPRWMCDGF
notes: as for B26
B36: Phage-2888 (peptide)
peptide: VSKVCKPAWMCEGL
notes: as for B26
B37: Phage-2885 (peptide)
peptide: NPPYCVPAWMCAGF
notes: as for B26
B38: Phage-2884 (peptide)
peptide: EFMRCTPPWMCLGF
notes: as for B26
B39: Phage-2878 (peptide)
peptide: ESARCVPMWMCNGF
notes: as for B26

Where no end group is shown, it is not given here.

In the first experiment the target is T1, PSMA Fab.
T1 construct: Biotinylated and captured on neutravidin plates in the phage ELISA; also called anti-PSMA Fab; 006 PSMA Fab
Nature of the experiment: clonal phage ELISA on captured PSMA Fab, wells pre-incubated with PSMA antigen as competitor, anti-M13-HRP detection.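 Further: crude clonal phage supernatants added without washing after the PSMA preincubation, comparison wells received blocking buffer alone without PSMA, bound phage read after washing.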 On the technique in general: ELISA stands for enzyme-linked immunosorbent assay.
Procedure: (§1) Clonal phage were harvested as crude supernatants and screened via standard ELISAs. […] Prior to the addition of clonal phage. wells were incubated with blocking buffer and PSMA antigen or blocking buffer alone. Without washing or aspirating, clonal phage supernatants were then added to the wells and incubated for a short time. Wells were then washed followed by detection of bound phage using a horse radish conjugated anti-M13 antibody.
In the case of B1, the “phage binding ELISA signal in presence of PSMA” value is 0.117.
The same measure, in the same setting: as for B2, the figure is 0.0795; as for B3, 0.183; as for B4, 0.155.
With B5, the “phage binding ELISA signal in presence of PSMA” value was found to be 0.0796.
For the molecule B6, the “phage binding ELISA signal in presence of PSMA” value was determined as 0.123.
The same measure, in the same setting: under B7 stands 0.1.
As to B8, the “phage binding ELISA signal in presence of PSMA” value amounted to 0.107.
As to B9, the “phage binding ELISA signal in presence of PSMA” value turned out to be 0.188.

The next experiment deals with T2, PSMA Fab.
T2 construct: Biotinylated and captured on neutravidin coated plates in the phage ELISA; also called Anti-PSMA Fab; 006 PSMA Fab
The experiment is described as follows: clonal phage ELISA on captured PSMA Fab pre-incubated with PSMA antigen as competitor, anti-M13 HRP detection.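 Further: crude clonal phage supernatants tested by ELISA, wells first treated with blocking buffer plus PSMA antigen, bound phage read out via HRP-linked anti-M13 antibody.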
Procedure: as §1
On to B10, for which the “Phage binding ELISA signal, Anti-PSMA Fab with PSMA antigen” value worked out at 0.0842.
With B11, the “Phage binding ELISA signal, Anti-PSMA Fab with PSMA antigen” value was determined as 0.0912.
Regarding B12, the “Phage binding ELISA signal, Anti-PSMA Fab with PSMA antigen” value worked out at 0.0828.
Consider B13, for which the “Phage binding ELISA signal, Anti-PSMA Fab with PSMA antigen” value is 0.224.
On the same count and under the same terms, as for B14, the figure is 0.148; as for B15, 0.113; as for B16, 0.0918.
Still for that read-out and setting: as for B17, the figure is 0.115; as for B18, 0.127; as for B19, 0.234.
On to B20, for which the “Phage binding ELISA signal, Anti-PSMA Fab with PSMA antigen” value was found to be 0.134.
Turning to B21, the “Phage binding ELISA signal, Anti-PSMA Fab with PSMA antigen” value was found to be 0.107.
For the molecule B22, the “Phage binding ELISA signal, Anti-PSMA Fab with PSMA antigen” value was 0.0975.
Consider B23, for which the “Phage binding ELISA signal, Anti-PSMA Fab with PSMA antigen” value worked out at 0.071.

The target of another experiment is T3, PSMA Fab.
T3 construct: also called Anti-PSMA Fab; 006 PSMA Fab
The experiment is described as follows: clonal phage ELISA; biotinylated PSMA Fab on neutravidin plate, anti-M13 HRP detection.
Procedure: as §1
On to B24, for which the “Phage binding ELISA signal, Anti-PSMA Fab” value is 2.42.
For the molecule B25, the “Phage binding ELISA signal, Anti-PSMA Fab” value worked out at 2.43.

A further experiment concerns the target T1, PSMA Fab. The experiment is described as follows: clonal phage ELISA on biotinylated PSMA Fab captured on neutravidin plates, anti-M13-HRP detection, no PSMA antigen.
Procedure: as §1
With B1, the “phage binding ELISA signal” value was found to be 2.35.
For the molecule B2, the “phage binding ELISA signal” value was found to be 2.34.
The same measure, in the same setting: as for B3, the figure is 2.34; as for B4, 2.34; as for B5, 2.35.
For B6, the “phage binding ELISA signal” value amounted to 2.35.
Turning to B7, the “phage binding ELISA signal” value came out at 2.35.
On the same count and under the same terms, under B8 stands 2.35; under B9, 2.35.

A further experiment deals with T3, PSMA Fab. Nature of the experiment: clonal phage ELISA on captured PSMA Fab; wells pre-incubated with PSMA antigen as competitor.
Procedure: as §1
As for B24, the “Phage binding ELISA signal (Anti-PSMA Fab, with competitor)” value came to 0.158.
With B25, the “Phage binding ELISA signal (Anti-PSMA Fab, with competitor)” value came out at 0.112.

A further experiment has as its target T4, 006 PSMA Fab.
T4 construct: also called Anti-PSMA Fab
The experiment is described as follows: phage ELISA; biotinylated PSMA Fab on neutravidin plate, blocking buffer alone, anti-M13-HRP detection.
Procedure: as §1
On to B26, for which the “Phage binding ELISA signal, Anti-PSMA Fab” value is 2.36.
Same read-out and setting: under B27 stands 2.36.
For B28, the “Phage binding ELISA signal, Anti-PSMA Fab” value worked out at 2.36.
Same read-out and setting: under B29 stands 2.38.
Still for that read-out and setting: under B30 stands 2.38.
Turning to B31, the “Phage binding ELISA signal, Anti-PSMA Fab” value was determined as 2.38.
As to B32, the “Phage binding ELISA signal, Anti-PSMA Fab” value stood at 2.36.
As to B33, the “Phage binding ELISA signal, Anti-PSMA Fab” value is 2.36.
Still for that read-out and setting: as for B34, the figure is 2.38; as for B35, 2.37.
Still for that read-out and setting: under B36 stands 2.36; under B37, 2.37; under B38, 2.37.
Turning to B39, the “Phage binding ELISA signal, Anti-PSMA Fab” value is 2.38.

For a further experiment, the target named is T4, 006 PSMA Fab. Nature of the experiment: phage ELISA; biotinylated PSMA Fab on neutravidin plate, wells pre-incubated with PSMA antigen as competitor, anti-M13-HRP detection.
Procedure: as §1
For the molecule B26, the “Phage binding ELISA signal, Anti-PSMA Fab in presence of PSMA antigen” value (“Phage binding ELISA signal … of PSMA antigen” below) was determined as 0.104.
On the same count and under the same terms, under B27 stands 0.0899; under B28, 0.0629; under B29, 0.0878.
The same measure, in the same setting: as for B30, the figure is 0.1; as for B31, 0.09.
Consider B32, for which the “Phage binding ELISA signal … of PSMA antigen” value worked out at 0.146.
Consider B33, for which the “Phage binding ELISA signal … of PSMA antigen” value turned out to be 0.0872.
On the same count and under the same terms, under B34 stands 0.118; under B35, 0.125.
The same measure, in the same setting: as for B36, the figure is 0.104; as for B37, 0.0765; as for B38, 0.12.
Same read-out and setting: as for B39, the figure is 0.0714.

In another experiment the target is T2, PSMA Fab. Nature of the experiment: clonal phage ELISA on biotinylated PSMA Fab captured on neutravidin plates, anti-M13 HRP detection.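 Further: crude clonal phage supernatants tested, before phage were added, wells were pretreated with PSMA antigen in blocking buffer or with blocking buffer only.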
Procedure: as §1
As to B10, the “Phage binding ELISA signal, Anti-PSMA Fab” value stood at 2.4.
As to B11, the “Phage binding ELISA signal, Anti-PSMA Fab” value was 2.4.
Still for that read-out and setting: under B12 stands 2.4; under B13, 2.39; under B14, 2.4.
Still for that read-out and setting: as for B15, the figure is 2.39; as for B16, 2.4; as for B17, 2.38.
Same read-out and setting: as for B18, the figure is 2.38; as for B19, 2.42.
Turning to B20, the “Phage binding ELISA signal, Anti-PSMA Fab” value is 2.39.
Take B21: the “Phage binding ELISA signal, Anti-PSMA Fab” value came to 2.39.
On the same count and under the same terms, as for B22, the figure is 2.39; as for B23, 2.4.

Source of the values: patent publication US20260242478A1 (published 2026).
